In this test the target is large catalase (CAT) from Aspergillus terreus MTCC 6324 (Aspergillus terreus MTCC 6324). The test can be described thus: SEC; HiPrep Sephacryl S-300 HR column, 50 mM sodium phosphate buffer pH 7.5; native mass against gel filtration standards (29-669 kDa), compared with the subunit mass from SDS-PAGE. Background: SEC sorts molecules by how far they enter the pores of the column.

As to “large catalase (CAT) from Aspergillus terreus MTCC 6324 (enzyme)”, the stoichiometry N (usually the number of molecules, sites or subunits per partner or assembly) was found to be 4.

Values taken from publication PMC4807065.
